{
  "source": "paper doi:10.1101/2024.04.06.588386",
  "about": "“Structural plasticity of 2A proteins in the Parechovirus family” (bioRxiv, 2024)",
  "proteins": {"B1": {"name": "HPeV1-2A^FL (full-length 2A^H/NC protein of human parechovirus 1) (natural protein)", "chain": "SPYGQQPQNRMMKLAYLDRGFYKHYGIIVGDHVYQLDSDDIFKTALTGKAKFTKTKLTSDWVIEEECELDYFRIKYLESAVDSEHIFSVDKNCETIAKDIFGTHTLSQHQAIGLVGTILLTAGLMSTIKTPVNAVTIKEFFNHAIDGDEQ", "notes": "also called full-length HPeV1-2A"}},
  "target": "the molecule itself",
  "assay": "SEC-SAXS; Superdex S75 Increase 5/150; 20 mM Hepes-NaOH pH 7.4, 150 mM NaCl, 4 mM TCEP, 1% v/v glycerol; molecular weight estimates and fit of crystallographic dimers (CRYSOL, NMA)",
  "data": [
    {"protein": "B1", "values": [
      {"measurement": "stoichiometry N", "value": 2}
    ]}
  ]
}
